One block for each molecule: values may come before it. Ends that are not written are not given here.
Key:
[1] = biological target: chimeric form of Gαq (Gαq/i), activated with aluminum fluoride; assay: fluorescence polarization in 384-well plates; 30 µM unlabeled 27-mer, 200 nM TAMRA-27-mer, 1.5 µM Gαq/i with aluminum fluoride; competitor: TAMRA-27-mer
[2] = biological target: T1, Gαq activated with aluminum fluoride (Gαq-GDP plus aluminum fluoride) (UniProt P50148 35-359); assay: cell-based or functional assay
T1 sequence (looked up): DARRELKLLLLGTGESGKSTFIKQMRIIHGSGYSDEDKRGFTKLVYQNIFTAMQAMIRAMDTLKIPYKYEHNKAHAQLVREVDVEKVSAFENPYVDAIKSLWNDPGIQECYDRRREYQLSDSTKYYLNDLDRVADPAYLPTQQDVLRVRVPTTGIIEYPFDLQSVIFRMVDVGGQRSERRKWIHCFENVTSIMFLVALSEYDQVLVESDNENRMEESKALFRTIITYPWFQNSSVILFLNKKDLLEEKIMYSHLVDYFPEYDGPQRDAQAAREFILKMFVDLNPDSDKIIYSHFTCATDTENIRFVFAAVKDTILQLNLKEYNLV

[3] = biological target: T1, Gαq activated with aluminum fluoride …; assay: fluorescence polarization competition; unlabeled PLC-β3 added to labeled 25-mer (400 nM) and Gαq (4 µM); competitor: TAMRA-25-mer
Source text: (§1) Quantification of Gαq binding to peptides corresponding to the HTH of PLβ3. […] KD and IC₅₀ values were derived from three independent experiments.

[4] = biological target: T1, Gαq activated with aluminum fluoride …; assay: fluorescence polarization; Gαq activated with aluminum fluoride titrated into TAMRA-labeled peptide
Source text: as §1

Molecule: peptide corresponding to the HTH of PLC-β3 and containing an I860A substitution (from UniProt Q01970 852-878)
phospholipase activity of PLC-β3 activated by Gαq in lipid vesicles (IC50) [2]: 100 nM

B2: TAMRA-25-mer (25-residue peptide spanning the entire helix-turn-helix of PLC-β3, labeled with TAMRA) (peptide)
peptide: HQDYAEALINPIKHVSLMDQRARQL
modifications: also: TAMRA label, position not given here
notes: also called labeled 25-mer; 25 residue peptide of PLC-β3
Kd [4]: ~6000 nM
phospholipase activity of PLC-beta3 activated by G-alpha-q in lipid vesicles, as a function of TAMRA-25-mer concentration (IC50) [2]: ~1 microMolar

The remaining lines, values ahead:

percent decrease in fluorescence polarization [1]: 50 percent
Molecule: unlabeled 27-mer (from UniProt Q01970 852-878) (peptide)

IC50 [3]: ~1000 nM
B1: full-length PLC-β3 (wild type) (enzyme, UniProt Q01970 2-1234, looked up)
chain: AGAQPGVHALQLEPPTVVETLRRGSKFIKWDEETSSRNLVTLRVDPNGFFLYWTGPNMEVDTLDISSIRDTRTGRYARLPKDPKIREVLGFGGPDARLEEKLMTVVSGPDPVNTVFLNFMAVQDDTAKVWSEELFKLAMNILAQNASRNTFLRKAYTKLKLQVNQDGRIPVKNILKMFSADKKRVETALESCGLKFNRSESIRPDEFSLEIFERFLNKLCLRPDIDKILLEIGAKGKPYLTLEQLMDFINQKQRDPRLNEVLYPPLRPSQARLLIEKYEPNQQFLERDQMSMEGFSRYLGGEENGILPLEALDLSTDMTQPLSAYFINSSHNTYLTAGQLAGTSSVEMYRQALLWGCRCVELDVWKGRPPEEEPFITHGFTMTTEVPLRDVLEAIAETAFKTSPYPVILSFENHVDSAKQQAKMAEYCRSIFGDALLIEPLDKYPLAPGVPLPSPQDLMGRILVKNKKRHRPSAGGPDSAGRKRPLEQSNSALSESSAATEPSSPQLGSPSSDSCPGLSNGEEVGLEKPSLEPQKSLGDEGLNRGPYVLGPADREDEEEDEEEEEQTDPKKPTTDEGTASSEVNATEEMSTLVNYIEPVKFKSFEAARKRNKCFEMSSFVETKAMEQLTKSPMEFVEYNKQQLSRIYPKGTRVDSSNYMPQLFWNVGCQLVALNFQTLDVAMQLNAGVFEYNGRSGYLLKPEFMRRPDKSFDPFTEVIVDGIVANALRVKVISGQFLSDRKVGIYVEVDMFGLPVDTRRKYRTRTSQGNSFNPVWDEEPFDFPKVVLPTLASLRIAAFEEGGKFVGHRILPVSAIRSGYHYVCLRNEANQPLCLPALLIYTEASDYIPDDHQDYAEALINPIKHVSLMDQRARQLAALIGESEAQAGQETCQDTQSQQLGSQPSSNPTPSPLDASPRRPPGPTTSPASTSLSSPGQRDDLIASILSEVAPTPLDELRGHKALVKLRSRQERDLRELRKKHQRKAVTLTRRLLDGLAQAQAEGRCRLRPGALGGAADVEDTKEGEDEAKRYQEFQNRQVQSLLELREAQVDAEAQRRLEHLRQALQRLREVVLDANTTQFKRLKEMNEREKKELQKILDRKRHNSISEAKMRDKHKKEAELTEINRRHITESVNSIRRLEEAQKQRHDRLVAGQQQVLQQLAEEEPKLLAQLAQECQEQRARLPQEIRRSLLGEMPEGLGDGPLVACASNGHAPGSSGHLSGADSESQEENTQL
notes: mature; also called PLC-beta3; unlabeled PLC-β3

From patent US20150218538A1 (UNIVERSITY OF NORTH CAROLINA AT CHAPEL HILL, published 2015)
